Here are results for 3 molecules from PMC10538557, “Vps60 initiates alternative ESCRT-III filaments” (The Journal of Cell Biology, 2023).

B2: Vps60 (natural protein, S. cerevisiae, UniProt Q03390 1-229, looked up)
chain: MNRIFGYGNKKSHDQLLQESNQSMNQAQQSLSNRISQLDTQIAQLNFQLQNIQKNLQRSNNKQPSLRKQALKILNKRKQLENMKDSLDSQSWSMTQAQLTNDNLQNTMITINALKQTNNAMKAQYGKINIDKLQDMQDEMLDLIEQGDELQEVLAMNNNSGELDDISDAELDAELDALAQEDFTLPTSENSLGNDMPSYLLGANAPPAFIDEEPNLDTEDKNKALESAQ
modifications: TFP-Atto-565 label (Atto565-Vps60) in the fluorescence assays; Alexa488-Vps60 also named; labeled proteins were mixed 1:1 with unlabeled proteins
notes: Vps60 (Mos10), ESCRT-III subunit of yeast; construct pGEX4T-Vps60; also called Mos10; Atto565-Vps60; source: Bl21 Escherichia coli (pGEX4T-Vps60), purified on GST-resin, on-column cleavage with TEV protease

The target of the data set “Vps60” is B2. Description: negative-stain electron microscopy; LUVs (DOPC:DOPS 6:4) in 20 mM Tris, pH 6.8, 200 mM NaCl, 1 mM MgCl2, incubated with 250 nM Vps60 for 1 h at 4°C, alone or with subsets of ESCRT-III subunits (Vps2 and Vps24; Vps2, Vps24 and Did2); filaments imaged after uranyl acetate staining. Conditions: both partners purified.
For a further data set, the target named is T1, Vps2 (UniProt P36108 1-232, TFP-AlexaFluor-488, TFP-Atto-565 or NHS-Atto-647N label, by experiment; labeled proteins were mixed 1:1 with unlabeled proteins).
T1 construct: Vps2, ESCRT-III subunit (human homolog CHMP2A); The yeast protein is surmised from the yeast nomenclature; also called Alexa488-Vps2; Vps2-Alex488
T1 sequence (looked up): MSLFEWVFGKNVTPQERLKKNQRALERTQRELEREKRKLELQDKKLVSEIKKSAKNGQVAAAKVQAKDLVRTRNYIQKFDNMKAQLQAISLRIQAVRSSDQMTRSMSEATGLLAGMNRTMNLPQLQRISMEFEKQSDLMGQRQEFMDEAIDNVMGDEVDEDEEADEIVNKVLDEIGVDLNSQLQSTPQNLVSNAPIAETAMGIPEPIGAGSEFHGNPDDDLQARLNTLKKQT
Description: recruitment on supported lipid bilayers, confocal fluorescence microscopy; SLBs covered with both Alexa488-Snf7 patches and Atto565-Vps60, incubated with Atto647-Vps2, Vps24 and Did2; time-lapse. The following applies: both partners purified.

Data set [1] deals with the molecule itself. Description: negative-stain electron microscopy; LUVs (DOPC:DOPS 6:4) in 20 mM Tris, pH 6.8, 200 mM NaCl, 1 mM MgCl2, incubated with 250 nM Vps60 for 1 h at 4°C, alone or with subsets of ESCRT-III subunits (Vps2 and Vps24; Vps2, Vps24 and Did2); filaments imaged after uranyl acetate staining.

B1: Did2 (natural protein, UniProt P69771 1-204, looked up)
chain: MSRNSAAGLENTLFQLKFTSKQLQKQANKASKEEKQETNKLKRALNENEDISRIYASNAIRKKNERLQLLKLASRVDSVASRVQTAVTMRQVSASMGQVCKGMDKALQNMNLQQITMIMDKFEQQFEDLDTSVNVYEDMGVNSDAMLVDNDKVDELMSKVADENGMELKQSAKLDNVPEIKAKEVNVDDEKEDKLAQRLRALRG
modifications: maleimide-AlexFluor-488 label where detected; labeled proteins were mixed 1:1 with unlabeled proteins
notes: Did2, ESCRT-III subunit (human homolog CHMP1B); The yeast protein is surmised from the yeast nomenclature; also called Alexa488-Did2; Did2-Atto565
As for B1, the binding result in the data set with Vps60 was “binds”.
As for B2, the binding result (with Vps2; in data set [1]) was “binds” each time.

B3: Vps24 (natural protein, UniProt P36095 1-224, looked up)
chain: MDYIKKAIWGPDPKEQQRRIRSVLRKNGRNIEKSLRELTVLQNKTQQLIKKSAKKNDVRTVRLYAKELYQINKQYDRMYTSRAQLDSVRMKIDEAIRMNTLSNQMADSAGLMREVNSLVRLPQLRNTMIELEKELMKSGIISEMVDDTMESVGDVGEEMDEAVDEEVNKIVEQYTNEKFKNVDQVPTVELAANEEEQEIPDEKVDEEADRMVNEMRERLRALQN
modifications: TFP-AlexaFluor-488 label where detected; labeled proteins were mixed 1:1 with unlabeled proteins
notes: Vps24, ESCRT-III subunit (human homolog CHMP3); The yeast protein is surmised from the yeast nomenclature; also called Alexa488-Vps24
With B3, the binding result with Vps60 is on record as “binds”.
